Measured values from patent US20190023792A1 (Innovent, published 2019).
Where a chain is given by its changes, count along the chain named. Names may count otherwise.

Experiments:
human PD-1 on cells [1] = molecular target: T1, human PD-1 on cells (human, UniProt Q15116 25-288); assay: flow cytometry blocking assay, 100 nM control IgG on CHO cells with human PD-1, then PD-L2-FITC (remaining ligand signal)
cynoPD-1_Fc (cyno) = cynoPD-1_Fc (cyno) (UniProt B0LAJ3); assay: BLI (ForteBio), Fab in solution, cynoPD-1_Fc on sensor tip
[2] = molecular target: b-PD-1 monomer (human PD-1) (human) (UniProt Q15116); assay: MSD solution equilibrium titration, avid KD
human PD-1 on cells [3] = molecular target: T1, human PD-1 on cells; assay: cell-based or functional assay
human PD-1 on cells [4] = molecular target: T1, human PD-1 on cells; assay: cell-based or functional assay; remark: listed apart in the source
human PD-1 on cells [5] = molecular target: T1, human PD-1 on cells; assay: flow cytometry on CHO cells with human PD-1, n=1
Experimental: Cells are then washed 3×, and are incubated with a secondary antibody (PE-labelled, at final concentration of 5 μg/ml) in PBS 1% BSA for 30 min on ice (protected from light). Cells are washed 3× and analyzed via flow cytometry. Flow cytometry is performed on an Accuri C6 system (BD Biosciences) and MFIs are calculated on the C6 software. EC50s are calculated on Graphpad software.

human PD-1 on cells [6] = molecular target: T1, human PD-1 on cells; assay: flow cytometry blocking assay, 100 nM antibody on CHO cells with human PD-1, then PD-L2-FITC (remaining ligand signal)
Experimental: CHO cells 0.2×10⁶ are incubated with the experimental antibody (100 nM) for 30 min in PBS 1% BSA on ice. […] Cells are washed 3× and analyzed via flow cytometry. Flow cytometry is performed on an Accuri C6 system (BD Biosciences) and MFIs are calculated on the C6 software. EC50 s are calculated on Graphpad software.

[7] = molecular target: T2, b-PD-1 monomer (human PD-1) (human, UniProt Q15116 25-167, limits assumed, biotinylated (b-PD-1; detected with streptavidin), site not stated); assay: MSD solution equilibrium titration, monovalent KD
T2 construct: The antigen used for the avid KD is not described separately; also called antigen
Experimental: (§1) Equilibrium affinity measurements are performed as previously described (Estep, P., et al., MAbs, 2013.5 (2): p. 270-8). Solution equilibrium titrations (SET) are performed in PBS+0.1% IgG-Free BSA (PBSF) where antigen (b-PD-1 monomer) is held constant at 10-100 pM and is incubated with 3-to 5-fold serial dilutions of Fab or mAbs starting at 5-100 nM (experimental condition is sample dependent). Antibodies diluted at 20 nM in PBS are coated onto standard bind MSD-ECL plates overnight at 4° C. or at room temperature for 30 min. Plates are blocked with BSA for 30 min whilst shaking at 700 rpm. Plates are then washed 3× with wash buffer (PBSF+0.05% Tween 20). SET samples are applied and incubated on the plates for 150 s with shaking at 700 rpm followed by one wash. Antigen captured on a plate is detected with 250 ng/mL sulfotag-labeled streptavidin in PBSF by incubation on the plate for 3 min. The plates are washed three times with wash buffer and are then read on the MSD Sector Imager 2400 instrument using 1× Read Buffer T with surfactant. The percent free antigen is plotted as a function of titrated antibody in Prism and fit to a quadratic equation to extract the KD. To improve throughput, liquid handling robots are used throughout MSD-SET experiments, including for SET sample preparation.

[8] = molecular target: T2, b-PD-1 monomer (human PD-1); assay: MSD solution equilibrium titration, avid KD
Experimental: as §1

human PD-1_His = molecular target: T3, human PD-1_His (human, UniProt Q15116 25-167, limits assumed); assay: BLI (ForteBio), hPD-1_HIS in solution, IgG on sensor tip
T3 construct: also called hPD-1_HIS
Experimental: Briefly, ForteBio affinity measurements were performed by loading IgGs online onto AHQ sensors. Sensors were equilibrated off-line in assay buffer for 30 min and then monitored on-line for 60 seconds for baseline establishment. Sensors with loaded IgGs were exposed to 100 nM antigen for 5 min, afterwards they were transferred to assay buffer for 5 min for off-rate measurement. Kinetics was analyzed using the 1:1 binding model.

cynoPD-1_Fc = cynoPD-1_Fc (cyno, UniProt B0LAJ3 25-170); assay: BLI (ForteBio), Fab in solution, cynoPD-1_Fc on sensor tip
human PD-1_Fc = molecular target: T4, human PD-1_Fc (human, UniProt Q15116 25-167, limits assumed); assay: BLI (ForteBio), Fab in solution, hPD-1_Fc on sensor tip
T4 construct: also called hPD-1_Fc
T4 sequence (Q15116 25-167 limits assumed): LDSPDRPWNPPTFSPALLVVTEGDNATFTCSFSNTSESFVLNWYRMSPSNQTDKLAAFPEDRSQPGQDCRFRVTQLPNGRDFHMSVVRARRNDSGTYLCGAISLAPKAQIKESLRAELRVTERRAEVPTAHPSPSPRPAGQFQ

T1 sequence (Q15116 25-288 limits assumed): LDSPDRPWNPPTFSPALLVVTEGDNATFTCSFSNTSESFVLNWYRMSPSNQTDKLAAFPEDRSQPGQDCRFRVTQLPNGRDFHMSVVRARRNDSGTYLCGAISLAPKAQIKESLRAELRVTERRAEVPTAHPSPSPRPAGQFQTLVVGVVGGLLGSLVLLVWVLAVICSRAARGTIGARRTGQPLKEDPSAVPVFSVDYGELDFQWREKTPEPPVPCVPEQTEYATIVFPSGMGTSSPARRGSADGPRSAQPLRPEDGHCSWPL
Sequence of cynoPD-1_Fc (B0LAJ3 entry or part of it limits assumed): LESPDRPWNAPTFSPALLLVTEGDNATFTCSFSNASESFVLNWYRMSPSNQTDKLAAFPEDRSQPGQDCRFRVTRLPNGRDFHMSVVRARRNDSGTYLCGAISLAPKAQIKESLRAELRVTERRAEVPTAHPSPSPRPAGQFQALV
T3 sequence (Q15116 25-167 limits assumed): as the sequence (Q15116 25-167 limits assumed) above
T2 sequence (Q15116 25-167 limits assumed): as above
Sequence of cynoPD-1_Fc (cyno) (B0LAJ3 entry or part of it limits assumed): as the sequence (B0LAJ3 entry or part of it limits assumed) above
Sequence of b-PD-1 monomer (human PD-1) (human) (Q15116 25-167 limits assumed): as the sequence (Q15116 25-167 limits assumed) above

Molecule control IgG (antibody) has an MFI (PD-L2-FITC) (human PD-1 on cells [1]) of 183000 MFI.

For pembrolizumab Fab, the Kd (cynoPD-1_Fc (cyno)) was 470 pM.

With nivolumab Fab the Kd (cynoPD-1_Fc (cyno)) was 1200 pM.

Work on nivolumab (antibody) yielded a Kd [2] of 5 pM.

B1: Antibody B S228P IgG4 (xd-16 B) (antibody, V domains shown)
VH: QVQLVQSGAEVKKPGSSVKVSCKASGGTFSSTAISWVRQAPGQGLEWMGGIWPSFGTASYAQKFQGRVTITADESTSTAYMELSSLRSEDTAVYYCARAEYSSTGIFDYWGQGTLVTVSS
VL: DIQMTQSPSSVSASVGDRVTITCRASQGISSWLAWYQQKPGKAPKLLISAASSLQSGVPSRFSGSGSGTDFTLTISSLQPEDFATYYCQQANHLPFTFGGGTKVEIKR
notes: also called xd-16 B (IgG4 S228P); xd-16 B IgG4
With B1 the “IFNg secretion fold change vs. IgG control, 0.01 nM IgG” value (human PD-1 on cells [3]) was 1.09 fold, the “IFNg secretion fold change vs. IgG control, 0.1 nM IgG” value (human PD-1 on cells [3]) was 1.59 fold and the “IFNg secretion fold change vs. IgG control, 1 nM IgG” value (human PD-1 on cells [3]) was 2.15 fold. For the same molecule, the “IFNg secretion fold change vs. IgG control, 10 nM IgG” value (human PD-1 on cells [3]) was 2.17 fold, the “IFNg secretion fold change vs. IgG control, 100 nM IgG” value (human PD-1 on cells [3]) was 1.9 fold and the “IL-2 secretion fold change vs. IgG control, 0.01 nM IgG” value (human PD-1 on cells [4]) was 1.15 fold. The “IL-2 secretion fold change vs. IgG control, 0.1 nM IgG” value (human PD-1 on cells [4]) was 1.46 fold, the “IL-2 secretion fold change vs. IgG control, 1 nM IgG” value (human PD-1 on cells [4]) was 2.18 fold and the “IL-2 secretion fold change vs. IgG control, 10 nM IgG” value (human PD-1 on cells [4]) was 2.39 fold. The “IL-2 secretion fold change vs. IgG control, 100 nM IgG” value (human PD-1 on cells [4]) was 2.37 fold and the EC50 (human PD-1 on cells [5]) was 1460 pM.

B2: xd-16 B, IgG1 format expressed in yeast (antibody, V domains shown)
VH: B1 VH
VL: DIQMTQSPSSVSASVGDRVTITCRASQGISSWLAWYQQKPGKAPKLLISAASSLQSGVPSRFSGSGSGTDFTLTISSLQPEDFATYYCQQANHLPFTFGGGTKVEIK
notes: Tested as IgG1 expressed in yeast; also called Antibody B
With B2 the “MFI (PD-L2-FITC)” value (human PD-1 on cells [6]) was 26400 MFI, the Kd [7] was 45 pM and the Kd [8] was about 0.9 pM. It also gave a Kd (human PD-1_His) of 420 pM.

B3: xd-16 B, Fab format produced from IgG1 expressed in yeast (Fab, V domains shown)
VH: B1 VH
VL: B2 VL
notes: Fab produced from the yeast IgG1
Molecule B3 has a Kd (cynoPD-1_Fc) of 780 pM and a Kd (human PD-1_Fc) of 630 pM.

B4: xd-16 D, IgG1 format expressed in yeast (antibody, V domains shown)
VH: B1 VH with G56D, S59N, Q65R, I106T
VL: B2 VL
notes: Tested as IgG1 expressed in yeast; also called Antibody D
In the case of B4, the “MFI (PD-L2-FITC)” value (human PD-1 on cells [6]) is reported as 40000 MFI, the Kd [7] is reported as 93 pM and the Kd [8] is reported as 1.3 pM. The Kd (human PD-1_His) was 650 pM.

B5: xd-16 C, IgG1 format expressed in yeast (antibody, V domains shown)
VH: B1 VH with Q65R, I106T
VL: B2 VL
notes: Tested as IgG1 expressed in yeast; also called Antibody C
In the case of B5, the “MFI (PD-L2-FITC)” value (human PD-1 on cells [6]) is reported as 26500 MFI, the Kd [7] is reported as 50 pM and the Kd [8] is reported as 2.5 pM. For the same molecule, the Kd (human PD-1_His) was 380 pM.

B6: xd-16 C, Fab format produced from IgG1 expressed in yeast (Fab, V domains shown)
VH: B1 VH with Q65R, I106T
VL: B2 VL
notes: as for B3
Work on B6 yielded a Kd (cynoPD-1_Fc) of 730 pM and a Kd (human PD-1_Fc) of 570 pM.

B7: Antibody D S228P IgG4 (xd-16 D) (antibody, V domains shown)
VH: B1 VH with G56D, S59N, Q65R, I106T
VL: B1 VL
notes: also called xd-16 D (IgG4 S228P); xd-16 D IgG4
B7 showed an EC50 (human PD-1 on cells [5]) of 1470 pM.

B8: xd-16 D, Fab format produced from IgG1 expressed in yeast (Fab, V domains shown)
VH: B1 VH with G56D, S59N, Q65R, I106T
VL: B2 VL
notes: as for B3
B8 gave a Kd (cynoPD-1_Fc) of 1200 pM and a Kd (human PD-1_Fc) of 990 pM.

B9: xd-16 E, Fab format produced from IgG1 expressed in yeast (Fab, V domains shown)
VH: B1 VH with S59N, Q62R
VL: B2 VL
notes: as for B3
For B9, the Kd (cynoPD-1_Fc) was 1000 pM and the Kd (human PD-1_Fc) was 860 pM.

B10: xd-16 E, IgG1 format expressed in yeast (antibody, V domains shown)
VH: B1 VH with S59N, Q62R
VL: B2 VL
notes: Tested as IgG1 expressed in yeast; also called Antibody E
For B10, the “MFI (PD-L2-FITC)” value (human PD-1 on cells [6]) was 40900 MFI, the Kd [7] was 150 pM and the Kd [8] was about 0.9 pM. The Kd (human PD-1_His) was 560 pM.
